# Source: US20210071162A1 (CENTRE NATIONAL DE LA RECHERCHE SCIENTIFIQUE, published 2021)
# B1: PhTET4 (enzyme)
# chain: MERIVKILREILEIPSPTGYTKEVMSYLEKFLKENEVNFYYTNKGALIAGNHPKPELVVIAHVDTLGAMVKEILPDGHLAFSRIGGLVLPTFEGEYCTIITRKGKKFRGTLLLRNPSAHVNREVGKKERKEENMYIRLDELVEKREDTEKLGIRPGDFIAFDPKFEYVNGFVKSHFLDDKASVAAILDLIIDMKDELEKYPVAFFFSPYEEVGHGGSAGYPPTTKELLVVDMGVVGEGVSGKETAVSIAAKDTTGPYDYDMTNRLIELAEENNIPYVVDVFPYYGSDGSAALRAGWDFRVALIGPGVHASHGMERTHVKGLLATKELIRAYIKWKG
# notes: also called TET protein; protein encoded by PH0737 gene
# What was measured:
# [1] = biological target: the molecule itself; assay: self-assembly of PhTET4 subunits; size-exclusion chromatography and negative stain electron microscopy
# Description: After the size exclusion chromatography step, 4 μl of PhTET4 at 0.05 mg/ml were deposited onto carbon-coated 400-mesh copper grids. The samples were stained using uranyl acetate 2% and air-dried. Images were taken under low-dose conditions in a T12FEI electron microscope working at 120 kV and with a nominal magnification of 40,000 using an Orius SC1000 CCD camera.
# The three-dimensional structure of PhTET4 was assessed by producing the recombinant PhTET4 in E. coll. The cellular extract was clarified by heat shock precipitation and the recombinant protein was purified by ion-exchange and size-exclusion chromatographies. […] The dimensions and the shape of PhTET4 are analogous to the three P. horikoshii tetrahedral TET edifices: PhTET1, PhTET2 and PhTET3.
# LGG = biological target: T1, LGG
# T1 chain: LGG
# GLM = biological target: T2, GLM
# T2 chain: GLM
# GMDSLAFSGGL = biological target: T3, GMDSLAFSGGL
# T3 chain: GMDSLAFSGGL
# Gly-Gly-pNA = biological target: T4, Gly-Gly-pNA
# T4 chain: GG
protein,measurement,setting,value
B1,binding result,[1],binds
same,"cleavage of the N-terminal residue of the peptide (reverse phase HPLC, N-terminal sequencing of products)",LGG,no enzymatic activity was detected against peptide that do not start by glycine residue even if a glycine residue is present at P1′ position as demonstrated with the LGG tripeptide
same,"cleavage of the N-terminal residue of the peptide (reverse phase HPLC, N-terminal sequencing of products)",GLM,PhTET4 does not exert amidolytic activity beyond the N-ter glycine in a peptide context
same,"cleavage of the N-terminal residue of the peptide (reverse phase HPLC, N-terminal sequencing of products)",GMDSLAFSGGL,PhTET4 does not exert amidolytic activity beyond the N-ter glycine in a peptide context
same,"enzymatic activity against the chromogenic peptide (released pNA), relative to Gly-pNA",Gly-Gly-pNA,"PhTET4 displayed significant activity against this substrate, corresponding to 10% of the total activity exhibited in presence of monoacyl compound Gly-pNA"
